From publication PMC12291119 (2025)
Bridge positions count the residues as written; N and C are the ends. Square brackets hold non-standard residues; d marks the D form. Primed or numbered codes have the meaning given here. Ends that are not written are not given here. * marks the point of attachment. Man9GlcNAc2 = CC(=O)N[C@@H]1[C@@H](O)[C@H](O[C@@H]2O[C@H](CO)[C@@H](O[C@@H]3O[C@H](CO[C@H]4O[C@H](CO[C@H]5O[C@H](CO)[C@@H](O)[C@H](O)[C@@H]5O[C@H]5O[C@H](CO)[C@@H](O)[C@H](O)[C@@H]5O)[C@@H](O)[C@H](O[C@H]5O[C@H](CO)[C@@H](O)[C@H](O)[C@@H]5O[C@H]5O[C@H](CO)[C@@H](O)[C@H](O)[C@@H]5O)[C@@H]4O)[C@@H](O)[C@H](O[C@H]4O[C@H](CO)[C@@H](O)[C@H](O)[C@@H]4O[C@H]4O[C@H](CO)[C@@H](O)[C@H](O)[C@@H]4O[C@H]4O[C@H](CO)[C@@H](O)[C@H](O)[C@@H]4O)[C@@H]3O)[C@H](O)[C@H]2NC(C)=O)[C@@H](CO)O[C@H]1*; Hpra′ = its azide, alkyne or alkene has reacted where a group follows in round brackets

B6: PGT128 (antibody, V domains shown)
VH: QPQLQESGPTLVEASETLSLTCAVSGDSTAACNSFWGWVRQPPGKGLEWVGSLSHCASYWNRGWTYHNPSLKSRLTLALDTPKNLVFLKLNSVTAADTATYYCARFGGEVLRYTDWPKPAWVDLWGRGTLVTVSS
VL: QSALTQPPSASGSPGQSITISCTGTSNNFVSWYQQHAGKAPKLVIYDVNKRPSGVPDRFSGSKSGNTASLTVSGLQTDDEAVYYCGSLVGNWDVIFGGGTKLTVL

Columns and labels:
Test in all cases: BLI
PGT128 [1] = target: B6
[2] = target: GB1R-non-glycosylated peptide (12)
m14 = target: m14
PGT128 [3] = target: B6; remark: listed apart in the source
[4] = target: H1 mutant without the glycans at the second and third glycosylation sites (peptide 4) (Man9GlcNAc2 by CuAAC on homopropargylglycine at the first glycosylation site only; biotin on the C-terminal lysine)
[5] = target: random scrambled version of the H1 sequence containing three glycans and cyclization (peptide 6) (three Man9GlcNAc2 glycans attached by CuAAC on homopropargylglycine (printed as M); cyclized; biotin on the C-terminal lysine)
[6] = target: H1 mutant without the glycan at the first of the three glycosylation sites (peptide 3) (Man9GlcNAc2 by CuAAC on homopropargylglycine at the second and third glycosylation sites only; biotin on the C-terminal lysine)
m13 = target: m13
m12 = target: m12

B1: acyclic H1 variant (peptide 7) (peptide)
chain: YTEKHNGIGDIRPAIC(iodoacetamide)[Hpra′](Man9GlcNAc2)NSKNQNHRC(iodoacetamide)NHYQIKLYIH[Hpra′](Man9GlcNAc2)L[Hpra′](Man9GlcNAc2)RLPHNYRNS
modifications: not fully specified (C-terminus); also: Man9GlcNAc2 attached by CuAAC, biotin on the C-terminal lysine (no K at C-terminus of given chain)
PGT128 [1]
  koff: 0.00616 s⁻¹

B2: gl-PGT121 (protein)
chain 1: SYVLTQPPSVSVAPGQTARITCGGNNIGSKSVHWYQQKPGQAPVLVVYDDSDRPSGIPERFSGSNSGNTATLTISRVEAGDEADYYCQVWDSSSDHPWVFGGGTKLTVLGQPKAAPSVTLFPPSSEELQANKATLVCLISDFYPGAVTVAWKADSSPVKAGVETTTPSKQSNNKYAASSYLSLTPEQWKSHRSYSCQVTHEGSTVEKTVAPTECS
chain 2: QVQLQESGPGLVKPSETLSLTCTVSGGSISSYYWSWIRQPPGKGLEWIGYIYYSGSTNYNPSLKSRVTISVDTSKNQFSLKLSSVTAADTAVYYCARTQQGKRIYGVVSFGDYYYYYYMDVWGKGTTVTVSSASTKGPSVFPLAPSSKSTSGGTAALGCLVKDYFPEPVTVSWNSGALTSGVHTFPAVLQSSGLYSLSSVVTVPSSSLGTQTYICNVNHKPSNTKVDKRVEPKSCDKTHHHHHH
[2]
  Kd: 710 nM
  koff: 0.00199 s⁻¹
m14
  Kd: 570 nM
  koff: 0.00262 s⁻¹

B3: H1 glycopeptide (peptide 1) (peptide)
chain: YTEKHNGIGDIRPAIC[Hpra′](Man9GlcNAc2)NSKNQNHRCNHYQIKLYIH[Hpra′](Man9GlcNAc2)L[Hpra′](Man9GlcNAc2)RLPHNYRNS
modifications: linker 16-26 via m‑dibromoxylene (inferred); not fully specified (C-terminus); also: Man9GlcNAc2 attached by CuAAC, biotin on the C-terminal lysine (no K at C-terminus of given chain)
PGT128 [1]
  koff: 6.3e-05 s⁻¹

B4: H22 glycopeptide (peptide 2) (peptide)
chain: LFKPYPKIGDIRKARC[Hpra′](Man9GlcNAc2)LQHTLHHRTNKQPSYRRRLKTLIPLFRRC[Hpra′](Man9GlcNAc2)L
modifications: not fully specified (C-terminus); cysteine pairing not given here; also: Man9GlcNAc2 attached by CuAAC, biotin on the C-terminal lysine (no K at C-terminus of given chain)
PGT128 [1]
  koff: 0.00635 s⁻¹

B5: H1 mutant with IGDIR changed to IAAIA (peptide 5) (peptide)
chain: YTEKHNGIAAIAPAIC[Hpra′](Man9GlcNAc2)NSKNQNHRCNHYQIKLYIH[Hpra′](Man9GlcNAc2)L[Hpra′](Man9GlcNAc2)RLPHNYRNS
modifications: not fully specified (C-terminus); cysteine pairing not given here; also: Man9GlcNAc2 attached by CuAAC, biotin on the C-terminal lysine (no K at C-terminus of given chain)
PGT128 [3]
  Kd: 12.4 nM
PGT128 [1]
  koff: 0.00212 s⁻¹

## B6
[4]
  Kd: 21.1 nM
  koff: 0.00221 s⁻¹
[5]
  koff: 0.0132 s⁻¹
[6]
  Kd: 0.94 nM
  koff: 5.6e-05 s⁻¹

B7: L1 glycopeptide (peptide 8) (peptide)
chain: SIKLINQ[Hpra′](Man9GlcNAc2)[Hpra′](Man9GlcNAc2)TTNPHLRLHIGDIRRLIKDLY[Hpra′](Man9GlcNAc2)FRVYYRPTNSGRRLFVN
modifications: not fully specified (C-terminus); also: Man9GlcNAc2 attached by CuAAC, biotin on the C-terminal lysine (no K at C-terminus of given chain)
PGT128 [1]
  koff: 0.000645 s⁻¹

B8: m2 (protein)
chain 1: QVHLQESGPGLVKPSETLSLTCNVSGTLVRDNYWSWIRQPLGKQPEWIGYVHDSGDTNYNPSLKSRVHLSLDKSKNLVSLRLTGVTAADSAIYYCATTKHGRRIYGVVAFKEWFTYFYMDVWGKGTSVTVSS
chain 2: APTFVSVAPGQTARITCGEESLGSRSVIWYQQRPGQAPSLIIYNNNDRPSGIPDRFSGSPGSTFGTTATLTITSVEAGDEADYYCHIWDSRRPTNWVFGEGTTLIVL
m13
  koff: 0.000202 s⁻¹
m12
  koff: 0.000802 s⁻¹
